Results as given in the DeepSol protein solubility set.

Experiment: soluble on expression in E. coli; label from the status in PepcDB or PDB records

Sequence | soluble on expression in E. coli
MHHHHHHSSGRENLYFQGQKDGIFKVMLVGESGVGKSTLAGTFGGLQGDSAHEPENPEDTYERRIMVDKEEVTLVVYDIWEQGDAGGWLRDHCLQTGDAFLIVFSVTDRRSFSKVPETLLRLRAGRPHHDLPVILVGNKSDLARSREVSLEEGRHLAGTLSCKHIETSAALHHNTRELFEGAVRQIRLRRGRNHA | soluble
MHHHHHHSSGRENLYFQGSTRGKVVLHTSLGDLDVELWARECPLACRNFVQLCLEGYYVNTIFHRVVKDFIVQGGDPTGTGRGGADTTFDGKPFDVETHPRLKFRYRGLVGVANLGRSSKDAENDERGRSLGTNGNQFFITLARADVLNNAYTLFGKVTGHTLYNLMKFNDLEVGKEDRPMTPPFIKSVDVLWNPFEDLVPRRLPDAPPAQKDERKRARAAGGRTTEGRARS | soluble
MHHHHHHSSGVDLGTENLYFQSMATGQKLMRAVRVFEFGGPEVLKLRSDIAVPIPKDHQVLIKVHACGVNPVETYIRSGTYSRKPLLPYTPGSDVAGVIEAVGDNASAFKKGDRVFTSSTISGGYAEYALAADHTVYKLPEKLDFKQGAAIGIPYFTAYRALIHSACVKAGESVLVHGASGGVGLAACQIARAYGLKILGTAGTEEGQKIVLQNGAHEVFNHREVNYIDKIKKYVGEKGIDIIIEMLANVNLSKDLSLLSHGGRVIVVGSRGTIEINPRDTMAKESSIIGVTLFSSTKEEFQQYAAALQAGMEIGWLKPVIGSQYPLEKVAEAHENIIHGSGATGKMILLL | soluble
MHHHHHHSSGVDLGTENLYFQSNAMKKVLIVFGTRPEAIKMAPLVQQLCQDNRFVAKVCVTGQHREMLDQVLELFSITPDFDLNIMEPGQTLNGVTSKILLGMQQVLSSEQPDVVLVHGDTATTFAASLAAYYQQIPVGHVEAGLRTGNIYSPWPEEGNRKLTAALTQYHFAPTDTSRANLLQENYNAENIFVTGNTVIDALLAVREKIHTDMDLQATLESQFPMLDASKKLILVTGHRRESFGGGFERICQALITTAEQHPECQILYPVHLNPNVREPVNKLLKGVSNIVLIEPQQYLPFVYLMDRAHIILTDSGGIQEEAPSLGKPVLVMRETTERPEAVAAGTVKLVGTNQQQICDALSLLLTDPQAYQAMSQAHNPYGDGKACQRIADILAK | soluble
MHHHHHHSSGVDLGTENLYFQSNAMTNIQKRFYKGRVALNVLANNIENAKDIFEAAEGYVVVGVLSKDYPTVEEAVTAMKAYGKEIDDAVSIGLGAGDNRQAAVVAEIAKHYPGSHINQVFPSVGATRANLGEKDSWINSLVSPTGKVGYVNISTGPISAAGEEKAIVPIKTAIALVRDMGGNSLKYFPMKGLAHEEEYRAVAKACAEEGFALEPTGGIDKENFETIVRIALEANVEQVIPHVYSSIIDKETGNTKVEAVRELLAVVKKLVDQYA | soluble
MHHHSHHHHSHMDVTIQHPWFKRTLGPFYPSRLFDQFFGEGLFEYDLLPFLSSTISPYYRQSLFRTVLDSGISEVRSDRDKFVIFLDVKHFSPEDLTVKVQDDFVEIHGKHNERQDDHGYISREFHRRYRLPSNVDQSALSCSLSADGMLTFCGPKIQTGLDATHAERAIPVSREEKPTSAPSSLEIRLLLEIRLL | soluble
MHHIETTKLSRRAFLKKLTRTSFSAALMMAAASGYARWIEPAELTVTHHALSHPLIPKSFAGVKLLQFSDLHLGHYYGLERFYRIMGRINELGPDLVVFTGDLLHEANRYPHVDAVAEALAGVRAPLGKFCIYGNHDHGGYGTDIYRRLMERAGFRVLVNEHALVRRGHGAIAIAGSDDMMLGRPDWSKMTNGIPRATYTIALVHEPDGAIEARRFPIHVQLSGHSHGGQIQLPFIGPLITPPLSERYYEGFYHVGGLLLYVNRGLGTTRVPLRFFAPPELTVFSLAPG | not soluble
MHHLILGYGYCGYYLAQELLGHHQQVTVVSRQLKKELELSKLQHISHDLEYPFHWSEPDSIIYYLIPPPSQGTCDTFLQQFLNQSSLNAKKIIYFGSSGVYGNHQGAWVDELSACIIDSPRQQRRLDAEQQWLAYCQQHNKELSLLRIAGIYGPNRIPADAAKSKIPIIKPTEAPFTNHIFVKDLALIAYLLGQKQTTSAVYNVADGNPTHMGELQQTVANALGIESASYESFEQAWEKASPMKREFMRASKRLKIDLLKTALGEDIQFTSLYDAVKQSL | not soluble
